Paper PMC5573810 (2017)

Tests used:
Assay in all cases: ELISA
[1] = molecular target: gp120-ferritin (gp120-FR) nanoparticle
[2] = molecular target: N332 nanoparticle (1GUT_A_ES-FR)
[3] = molecular target: clade-C (ZM109) V1V2-ferritin nanoparticle (V1V2-FR) (HIV-1 ZM109 (clade C) | )

Binder	EC50 [1]	EC50 [2]	EC50 [3]
PGT124 (antibody, V domains shown) VH: QVQLQESGPGLVRPSETLSVTCIVSGGSISNYYWTWIRQSPGKGLEWIGYISDRETTTYNPSLNSRAVISRDTSKNQLSLQLRSVTTADTAIYFCATARRGQRIYGVVSFGEFFYYYYMDVWGKGTAVTVSS VL: SYVSPLSVALGETARISCGRQALGSRAVQWYQHKPGQAPILLIYNNQDRPSGIPERFSGTPDINFGTTATLTISGVEVGDEADYYCHMWDSRSGFSWSFGGATRLTVL	0.026 µg/mL	0.03 µg/mL	–
PGT133 (antibody, V domains shown) VH: QVHLQESGPGLVTPSETLSLTCTVSNGSVSGRFWSWIRQSPGRGLEWIGYFSDTDRSEYNPSLRSRLTLSVDRSKNQLSLRLKSVTAADSATYYCARAQQGKRIYGIVSFGEFFYYYYMDAWGKGTPVTVSS VL: LSLAPGATAKIPCGERSRGSRAVQWYQQKPGQAPTLIIYNNQDRPAGVSERFSGNPDVAIGVTATLTISRVEVGDEADYYCHYWDSRSPISWIFGGGTQLTVL	0.042 µg/mL	0.024 µg/mL	0.26 µg/mL
